{"source": "patent US11906519B2", "about": "“Methods for identifying LILRB-blocking antibodies” (THE BOARD OF REGENTS OF THE UNIVERSITY OF TEXAS SYSTEM, priority 2016, dated 2024)", "molecules": {"B1": {"name": "arginase-1: recombinant Arginase-1 protein supplemented to culture (protein, UniProt P05089 1-322, looked up)", "Arginase-1": "MSAKSRTIGIIGAPFSKGQPRGGVEEGPTVLRKAGLLEKLKEQECDVKDYGDLPFADIPNDSPFQIVKNPRSVGKASEQLAGKVAEVKKNGRISLVLGGDHSLAIGSISGHARVHPDLGVIWVDAHTDINTPLTTTSGNLHGQPVSFLLKELKGKIPDVPGFSWVTPCISAKDIVYIGLRDVDPGEHYILKTLGIKYFSMTEVDRLGIGKVMEETLSYLLGRKKRPIHLSFDVDGLDPSFTPATGTPVVGGLTYREGLYITEEIYKTGLLSGLDIMEVNPSLGKTPEEVTRTVNTAVAITLACFGLAREGNHKPIDYLNPPK"}}, "type_in_all_cases": "cell-based, human", "key": {"MV4-11 cells": {"test_system": "MV4-11 cells", "assay": "Transwell trans-endothelial migration of MV4-11 cells", "conditions": "lilrb4-KO MV4-11, recombinant protein supplemented", "method": "Transwell assay. To test the cell plasticity, 1×10^5 MV4-11 cells were labelled with CFSE (Invitrogen) and treated with 100 μg/ml of anti-LILRB4 antibody C84 or control antibody mIgG and cultured in the upper chamber of well in a transwell plate (Corning). After 18 h, cells in lower chamber were counted. To test the ability of AML cells to migrate through endothelial cells, 3×10^5 human umbilical vein endothelial cells (HUVEC) cells were cultured on the transwell membrane. After 3 days, 1×10^5 CFSE-labelled MV4-11 cells were seeded in the upper chamber with 100 μg/ml of C84 or mIgG. After 18 h, cells in lower chamber were counted."}, "THP-1 cells": {"test_system": "THP-1 cells", "assay": "Transwell trans-endothelial migration of THP-1 cells", "conditions": "lilrb4-KO THP-1, recombinant protein supplemented"}, "[1]": {"test_system": "T cells co-cultured with THP-1 cells", "assay": "Tumor cell/T cell co-culture assay", "conditions": "T cells with irradiated THP-1 cells, protein supplemented", "method": "Tumor cell/T cell co-culture assay. Human T cells isolated from health donor peripheral blood (PB009-1-0, Allcells) were co-cultured with irradiated (28 Gy) THP-1 cells in a U-bottom 96 well-plate for 3-7 days. Anti-CD3/CD28-coated beads (#11161D, Thermo Fisher), 50 U/ml recombinant human IL-2, and 5 ng/ml recombinant human IL-7 were supplemented to the medium. In some experiments, THP-1 cells were cultured in the upper chamber of transwell inserts (pore size is 3 μM, #09-761-80, Thermo Fisher) for the U-bottom 96 well-plate. For primary AML or B-ALL samples, patient CD3^+ T cells were collected and patient leukemia cells were sorted as CD33^+ and CD19^+ for AML and B-ALL, respectively.\nCD8^+ T cells (5×10^4 per well) isolated from hPBMCs of a healthy donor (Interstate Blood Bank) were stimulated with anti-CD3/CD28/CD137-coated beads (11163D, Thermo Fisher) or cultured without stimulation for 2 days in a 96-well plate. Then, 5×10^3 human leukemia THP-1-Luc-GFP cells and 50 to 500 μg/ml anti-LILRB4 antibody C84 or control antibody mIgG were added. Cell numbers were determined on day 7 in triplicate wells. Anti-CD8 and anti-CD28 were used to detect human CTL cells; THP-1 cells were positive for GFP. […]"}}, "data": [{"molecule": "B1", "values": [{"measurement": "Migration ability of MV4-11 cells across endothelial cells", "setting": "MV4-11 cells", "value": "increased"}, {"measurement": "Migration ability of THP-1 cells across endothelial cells", "setting": "THP-1 cells", "value": "increased"}, {"measurement": "T cell proliferation in coculture", "setting": "[1]", "value": "decreased"}]}]}
